Consider one substance from patent US20140271653A1.

Holding throughout (test): cell-based or functional assay
Experiment [1] concerns the target RSV-F of RSV subtype A clinical isolate A1997/12-35 (respiratory syncytial virus subtype A, clinical isolate A1997/12-35).
Experiment [2] concerns the target RSV-F of RSV subtype A clinical isolate A1998/12-21 (respiratory syncytial virus subtype A, clinical isolate A1998/12-21).
Experiment [3] deals with RSV-F of RSV subtype A clinical isolate A1998/3-2 (respiratory syncytial virus subtype A, clinical isolate A1998/3-2).
Experiment [4] addresses RSV-F of RSV subtype A clinical isolate A2000/3-4 (respiratory syncytial virus subtype A, clinical isolate A2000/3-4).
In experiment [5] the target is RSV-F of RSV subtype A clinical isolate A2001/2-20 (respiratory syncytial virus subtype A, clinical isolate A2001/2-20).
Experiment [6] addresses RSV-F of RSV subtype A clinical isolate A2001/3-12 (respiratory syncytial virus subtype A, clinical isolate A2001/3-12).
The target of experiment [7] is RSV-F of RSV subtype A strain A2 (1540) (respiratory syncytial virus subtype A, strain A2 (1540)) (UniProt P03420).
Sequence of RSV-F of RSV subtype A strain A2 (1540) (respiratory syncytial virus subtype A, strain A2 (1540)) (P03420 26-574): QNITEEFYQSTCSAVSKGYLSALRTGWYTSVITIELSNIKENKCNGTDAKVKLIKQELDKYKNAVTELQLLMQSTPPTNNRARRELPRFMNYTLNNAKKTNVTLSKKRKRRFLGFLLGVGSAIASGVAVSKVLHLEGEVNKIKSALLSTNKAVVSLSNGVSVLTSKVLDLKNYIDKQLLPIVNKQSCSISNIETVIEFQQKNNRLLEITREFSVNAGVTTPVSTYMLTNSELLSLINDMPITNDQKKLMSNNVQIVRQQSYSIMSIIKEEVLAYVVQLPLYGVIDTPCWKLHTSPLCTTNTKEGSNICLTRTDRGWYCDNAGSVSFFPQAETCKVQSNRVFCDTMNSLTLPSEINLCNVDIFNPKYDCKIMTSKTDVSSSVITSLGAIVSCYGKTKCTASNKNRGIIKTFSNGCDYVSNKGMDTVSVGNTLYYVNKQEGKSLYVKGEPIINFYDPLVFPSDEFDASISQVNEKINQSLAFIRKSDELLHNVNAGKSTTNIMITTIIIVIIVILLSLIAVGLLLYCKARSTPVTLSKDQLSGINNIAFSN
The target in experiment [8] is RSV-F of RSV subtype A strain Long (respiratory syncytial virus subtype A, strain Long) (UniProt P12568).
Sequence of RSV-F of RSV subtype A strain Long (respiratory syncytial virus subtype A, strain Long) (P12568 26-574): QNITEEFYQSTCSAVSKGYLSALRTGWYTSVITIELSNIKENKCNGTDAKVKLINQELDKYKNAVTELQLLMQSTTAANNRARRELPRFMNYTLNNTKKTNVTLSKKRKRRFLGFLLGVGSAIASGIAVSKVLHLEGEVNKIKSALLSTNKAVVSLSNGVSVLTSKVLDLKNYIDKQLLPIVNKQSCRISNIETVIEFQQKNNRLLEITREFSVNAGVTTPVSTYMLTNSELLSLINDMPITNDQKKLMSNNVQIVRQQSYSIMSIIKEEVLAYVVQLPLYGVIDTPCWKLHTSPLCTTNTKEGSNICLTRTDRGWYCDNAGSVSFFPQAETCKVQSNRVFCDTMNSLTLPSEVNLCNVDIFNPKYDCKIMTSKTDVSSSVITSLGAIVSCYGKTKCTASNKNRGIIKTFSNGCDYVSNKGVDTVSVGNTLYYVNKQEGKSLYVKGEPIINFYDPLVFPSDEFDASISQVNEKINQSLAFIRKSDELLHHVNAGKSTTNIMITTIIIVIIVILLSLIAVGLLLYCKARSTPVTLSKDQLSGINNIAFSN
Experiment [9] deals with RSV-F of RSV subtype B strain 1400 (respiratory syncytial virus subtype B, strain 1400).
In experiment [10] the target is RSV-F of RSV subtype B strain 18537 (respiratory syncytial virus subtype B, strain 18537) (UniProt P13843).
Sequence of RSV-F of RSV subtype B strain 18537 (respiratory syncytial virus subtype B, strain 18537) (P13843 26-574): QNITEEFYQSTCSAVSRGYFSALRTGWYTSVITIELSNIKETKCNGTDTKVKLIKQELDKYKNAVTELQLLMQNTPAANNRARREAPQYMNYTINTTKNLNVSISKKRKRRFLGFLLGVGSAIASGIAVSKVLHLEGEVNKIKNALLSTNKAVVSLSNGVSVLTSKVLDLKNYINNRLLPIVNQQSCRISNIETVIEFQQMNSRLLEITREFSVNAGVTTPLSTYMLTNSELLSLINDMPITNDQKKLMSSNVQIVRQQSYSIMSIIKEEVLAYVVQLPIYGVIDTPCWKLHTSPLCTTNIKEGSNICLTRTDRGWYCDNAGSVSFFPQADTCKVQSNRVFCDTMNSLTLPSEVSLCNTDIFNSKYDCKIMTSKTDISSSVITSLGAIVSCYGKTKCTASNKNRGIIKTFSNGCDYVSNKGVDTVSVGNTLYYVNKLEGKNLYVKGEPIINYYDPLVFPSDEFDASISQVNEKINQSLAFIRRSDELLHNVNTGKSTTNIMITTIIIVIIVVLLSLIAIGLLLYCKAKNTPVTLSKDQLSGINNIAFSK
For experiment [11], the target named is RSV-F of RSV subtype B strain 1A2 (respiratory syncytial virus subtype B, strain 1A2).
For experiment [12], the target named is RSV-F of RSV subtype B strain 9320 (respiratory syncytial virus subtype B, strain 9320).

Sequence of Control III (AM-22) (antibody) (VH): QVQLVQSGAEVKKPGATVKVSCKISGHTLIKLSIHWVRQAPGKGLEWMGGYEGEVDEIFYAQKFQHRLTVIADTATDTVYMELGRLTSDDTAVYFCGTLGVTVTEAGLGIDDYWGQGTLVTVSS
Sequence of Control III (AM-22) (antibody) (VL): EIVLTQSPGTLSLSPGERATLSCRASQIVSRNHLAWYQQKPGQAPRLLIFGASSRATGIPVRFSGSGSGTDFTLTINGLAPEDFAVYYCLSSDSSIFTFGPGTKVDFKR

In the case of Control III (AM-22) (antibody), the IC50 (pM), RSV micro-neutralization, clinical isolate was 20 pM in [1]; 43 pM in [2]; 31 pM in experiment [3]; 55 pM in experiment [4]; 72 pM in experiment [5]; 60 pM in experiment [6]. The substance further gave an IC50 (pM), RSV micro-neutralization, A/A2 in experiment [7] of 91 pM. This substance had an IC50 (pM), RSV micro-neutralization, A/Long in [8] of 86 pM. The substance also gave an IC50 (pM), RSV micro-neutralization, B/1400 in experiment [9] of 190 pM. The substance further had an IC50 (pM), RSV micro-neutralization, B/18537 in [10] of 660 pM. In addition, the IC50 (pM), RSV micro-neutralization, B/1A2 in [11] is 580 pM. The IC50 (pM), RSV micro-neutralization, B/9320 in [12] turned out to be 2510 pM.
